{
  "source": "the Human Domainome abundance scans (Beltran et al. 2025)",
  "parents": {"B1": {"name": "Segment polarity protein dishevelled homolog DVL-3, residues 2 to 81; numbered along this chain, Q92997 (parent)", "chain": "GETKIIYHLDGQETPYLVKLPLPAERVTLADFKGVLQRPSYKFFFKSMDDDFGVVKEEISDDNAKLPCFNGRVVSWLVSA"}},
  "note": "± gives the uncertainty stated by the source.",
  "data": [
    {"variants_of": "B1", "assay": "abundance fitness (aPCA) (normalised: wild type 0, dead -1); higher = more abundant; growth selection in yeast, the domain comes from the species named", "conditions": "Homo sapiens", "values": [
      {"variant": "GETKIIYHLDGQETPYLVKLPLPAERVTLADFKGVLQRPSYKFFFKSMDDDFGVQKEEISDDNAKLPCFNGRVVSWLVSA", "note": "[V55Q]", "abundance fitness": "0.106 ± 0.06"},
      {"variant": "GETKIIYHLDGQETPYLVKLPLPAERVTLADFKGVLQRPSYKFFFKSMDDDFGVHKEEISDDNAKLPCFNGRVVSWLVSA", "note": "[V55H]", "abundance fitness": "0.365 ± 0.075"},
      {"variant": "GETKIIYHLDGQETPYLVKLPLPAERVTLADFKGVLQRPSYKFFFKSMDDDFGVVKLEISDDNAKLPCFNGRVVSWLVSA", "note": "[E57L]", "abundance fitness": "0.136 ± 0.05"},
      {"variant": "GETKIIYHLDGQETPYLVKLPLPAERVTLADFKGVLQRPSYKFFFKSMDDDFGVVKMEISDDNAKLPCFNGRVVSWLVSA", "note": "[E57M]", "abundance fitness": "0.292 ± 0.061"},
      {"variant": "GETKIIYHLDGQETPYLVKLPLPAERVTLADFKGVLQRPSYKFFFKSMDDDFGVVKGEISDDNAKLPCFNGRVVSWLVSA", "note": "[E57G]", "abundance fitness": "-0.623 ± 0.084"},
      {"variant": "GETKIIYHLDGQETPYLVKLPLPAERVTLADFKGVLQRPSYKFFFKSMDDDFGVVKSEISDDNAKLPCFNGRVVSWLVSA", "note": "[E57S]", "abundance fitness": "-0.137 ± 0.055"},
      {"variant": "GETKIIYHLDGQETPYLVKLPLPAERVTLADFKGVLQRPSYKFFFKSMDDDFGVVKHEISDDNAKLPCFNGRVVSWLVSA", "note": "[E57H]", "abundance fitness": "-0.109 ± 0.11"},
      {"variant": "GETKIIYHLDGQETPYLVKLPLPAERVTLADFKGVLQRPSYKFFFKSMDDDFGVVKDEISDDNAKLPCFNGRVVSWLVSA", "note": "[E57D]", "abundance fitness": "-0.904 ± 0.24"},
      {"variant": "GETKIIYHLDGQETPYLVKLPLPAERVTLADFKGVLQRPSYKFFFKSMDDDFGVVKNEISDDNAKLPCFNGRVVSWLVSA", "note": "[E57N]", "abundance fitness": "-0.276 ± 0.14"},
      {"variant": "GETKIIYHLDGQETPYLVKLPLPAERVTLADFKGVLQRPSYKFFFKSMDDDFGVVKVEISDDNAKLPCFNGRVVSWLVSA", "note": "[E57V]", "abundance fitness": "0.254 ± 0.049"},
      {"variant": "GETKIIYHLDGQETPYLVKLPLPAERVTLADFKGVLQRPSYKFFFKSMDDDFGVVKREISDDNAKLPCFNGRVVSWLVSA", "note": "[E57R]", "abundance fitness": "0.44 ± 0.038"},
      {"variant": "GETKIIYHLDGQETPYLVKLPLPAERVTLADFKGVLQRPSYKFFFKSMDDDFGVVKPEISDDNAKLPCFNGRVVSWLVSA", "note": "[E57P]", "abundance fitness": "-0.475 ± 0.095"},
      {"variant": "GETKIIYHLDGQETPYLVKLPLPAERVTLADFKGVLQRPSYKFFFKSMDDDFGVVKQEISDDNAKLPCFNGRVVSWLVSA", "note": "[E57Q]", "abundance fitness": "0.256 ± 0.055"},
      {"variant": "GETKIIYHLDGQETPYLVKLPLPAERVTLADFKGVLQRPSYKFFFKSMDDDFGVVKCEISDDNAKLPCFNGRVVSWLVSA", "note": "[E57C]", "abundance fitness": "-0.09 ± 0.086"},
      {"variant": "GETKIIYHLDGQETPYLVKLPLPAERVTLADFKGVLQRPSYKFFFKSMDDDFGVVKAEISDDNAKLPCFNGRVVSWLVSA", "note": "[E57A]", "abundance fitness": "-0.121 ± 0.056"},
      {"variant": "GETKIIYHLDGQETPYLVKLPLPAERVTLADFKGVLQRPSYKFFFKSMDDDFGVVKKEISDDNAKLPCFNGRVVSWLVSA", "note": "[E57K]", "abundance fitness": "0.502 ± 0.052"},
      {"variant": "GETKIIYHLDGQETPYLVKLPLPAERVTLADFKGVLQRPSYKFFFKSMDDDFGVVKTEISDDNAKLPCFNGRVVSWLVSA", "note": "[E57T]", "abundance fitness": "0.441 ± 0.052"},
      {"variant": "GETKIIYHLDGQETPYLVKLPLPAERVTLADFKGVLQRPSYKFFFKSMDDDFGVVHEEISDDNAKLPCFNGRVVSWLVSA", "note": "[K56H]", "abundance fitness": "-0.216 ± 0.1"},
      {"variant": "GETKIIYHLDGQETPYLVKLPLPAERVTLADFKGVLQRPSYKFFFKSMDDDFGVVLEEISDDNAKLPCFNGRVVSWLVSA", "note": "[K56L]", "abundance fitness": "-0.094 ± 0.051"},
      {"variant": "GETKIIYHLDGQETPYLVKLPLPAERVTLADFKGVLQRPSYKFFFKSMDDDFGVVQEEISDDNAKLPCFNGRVVSWLVSA", "note": "[K56Q]", "abundance fitness": "-0.285 ± 0.072"},
      {"variant": "GETKIIYHLDGQETPYLVKLPLPAERVTLADFKGVLQRPSYKFFFKSMDDDFGVVIEEISDDNAKLPCFNGRVVSWLVSA", "note": "[K56I]", "abundance fitness": "0.03 ± 0.096"},
      {"variant": "GETKIIYHLDGQETPYLVKLPLPAERVTLADFKGVLQRPSYKFFFKSMDDDFGVVFEEISDDNAKLPCFNGRVVSWLVSA", "note": "[K56F]", "abundance fitness": "-0.009 ± 0.082"},
      {"variant": "GETKIIYHLDGQETPYLVKLPLPAERVTLADFKGVLQRPSYKFFFKSMDDDFGVVREEISDDNAKLPCFNGRVVSWLVSA", "note": "[K56R]", "abundance fitness": "0.041 ± 0.038"},
      {"variant": "GETKIIYHLDGQETPYLVKLPLPAERVTLADFKGVLQRPSYKFFFKSMDDDFGVVGEEISDDNAKLPCFNGRVVSWLVSA", "note": "[K56G]", "abundance fitness": "-0.63 ± 0.066"},
      {"variant": "GETKIIYHLDGQETPYLVKLPLPAERVTLADFKGVLQRPSYKFFFKSMDDDFGVVPEEISDDNAKLPCFNGRVVSWLVSA", "note": "[K56P]", "abundance fitness": "-0.496 ± 0.089"},
      {"variant": "GETKIIYHLDGQETPYLVKLPLPAERVTLADFKGVLQRPSYKFFFKSMDDDFGVVEEEISDDNAKLPCFNGRVVSWLVSA", "note": "[K56E]", "abundance fitness": "-0.431 ± 0.079"},
      {"variant": "GETKIIYHLDGQETPYLVKLPLPAERVTLADFKGVLQRPSYKFFFKSMDDDFGVVNEEISDDNAKLPCFNGRVVSWLVSA", "note": "[K56N]", "abundance fitness": "-0.678 ± 0.22"},
      {"variant": "GETKIIYHLDGQETPYLVKLPLPAERVTLADFKGVLQRPSYKFFFKSMDDDFGVVAEEISDDNAKLPCFNGRVVSWLVSA", "note": "[K56A]", "abundance fitness": "-0.32 ± 0.06"},
      {"variant": "GETKIIYHLDGQETPYLVKLPLPAERVTLADFKGVLQRPSYKFFFKSMDDDFGVVTEEISDDNAKLPCFNGRVVSWLVSA", "note": "[K56T]", "abundance fitness": "0.162 ± 0.051"},
      {"variant": "GETKIIYHLDGQETPYLVKLPLPAERVTLADFKGVLQRPSYKFFFKSMDDDFGVVSEEISDDNAKLPCFNGRVVSWLVSA", "note": "[K56S]", "abundance fitness": "-0.52 ± 0.071"},
      {"variant": "GETKIIYHLDGQETPYLVKLPLPAERVTLADFKGVLQRPSYKFFFKSMDDDFGVVVEEISDDNAKLPCFNGRVVSWLVSA", "note": "[K56V]", "abundance fitness": "0.102 ± 0.042"},
      {"variant": "GETKIIYHLDGQETPYLVKLPLPAERVTLADFKGVLQRPSYKFFFKSMDDDFGVVDEEISDDNAKLPCFNGRVVSWLVSA", "note": "[K56D]", "abundance fitness": "-0.738 ± 0.21"},
      {"variant": "GETKIIYHLDGQETPYLVKLPLPAERVTLADFKGVLQRPSYKFFFKSMDDDFGVVCEEISDDNAKLPCFNGRVVSWLVSA", "note": "[K56C]", "abundance fitness": "0.103 ± 0.068"},
      {"variant": "GETKIIYHLDGQETPYLVKLPLPAERVTLADFKGVLQRPSYKFFFKSMDDDFGVVWEEISDDNAKLPCFNGRVVSWLVSA", "note": "[K56W]", "abundance fitness": "0.282 ± 0.048"},
      {"variant": "GETKIIYHLDGQETPYLVKLPLPAERVTLADFKGVLQRPSYKFFFKSMDDDFGVVYEEISDDNAKLPCFNGRVVSWLVSA", "note": "[K56Y]", "abundance fitness": "0.592 ± 0.083"}
    ]}
  ]
}
